The EC50 is the concentration giving half of the maximal effect.

Where two headings read alike, the source gives them in different places.

The source of these data is patent US20240132603A1 (HARBOUR BIOMED US, published 2024).

Test [1] has as its target T1, human CCR8 (human, UniProt P51685 1-355).
T1 construct: whole, on cells; construct used for the overexpressing cell lines is not described; also called hCCR8
The test is described as follows: FACS, CHO-K1-hCCR8 cells. Here is the method: (§1) Cells overexpressing human CCR8 were digested with pancreatin, counted and resuspended to a cell density of 1E6 cells/mL. The cell suspension was added to a 96-well V-bottom plate at 100 μL/well and centrifuged at 300 g for 5 min, and the supernatant was discarded. The anti-CCR8 antibodies provided herein was used as a primary antibody and diluted in a 5-fold gradient with an FACS buffer (DPBS containing 2% FBS) from 200 nM. The diluted primary antibody was added at 100 μL/well to resuspend the cells, and the mixture was incubated at 4° C. for 1 h. The plate was washed twice with DPBS and centrifuged at 300×g for 5 min, and the supernatant was discarded. The secondary antibody diluted in a 1:1000 ratio with an FACS buffer was added at 100 μL/well to suspend the cells, and the mixture was incubated at 4° C. for 40 min. The plate was washed twice with DPBS and centrifuged at 300×g for 5 min, and the supernatant was discarded. DPBS was added at 200 μL/well to suspend the cells, and the mixture was loaded on an FACS machine for analysis.

For another test, the target named is T2, cynomolgus monkey CCR8 (cynomolgus monkey, UniProt G7NYJ2 1-355).
T2 construct: whole, on cells; also called CynoCCR8
The test is described as follows: FACS, CHO-K1-CynoCCR8 cells. Here is the method: as §1, with “cynomolgus monkey CCR8, CHO-K1-CynoCCR8,” for “human CCR8”
(In general: A flow cytometer gives signals particle by particle.)

For test [2], the target named is T1, human CCR8. The test is described as follows: FACS, CHO-K1-hCCR8 cells. The method, then:
as §1
The source holds these as a separate data set.

T1 sequence (P51685 whole entry): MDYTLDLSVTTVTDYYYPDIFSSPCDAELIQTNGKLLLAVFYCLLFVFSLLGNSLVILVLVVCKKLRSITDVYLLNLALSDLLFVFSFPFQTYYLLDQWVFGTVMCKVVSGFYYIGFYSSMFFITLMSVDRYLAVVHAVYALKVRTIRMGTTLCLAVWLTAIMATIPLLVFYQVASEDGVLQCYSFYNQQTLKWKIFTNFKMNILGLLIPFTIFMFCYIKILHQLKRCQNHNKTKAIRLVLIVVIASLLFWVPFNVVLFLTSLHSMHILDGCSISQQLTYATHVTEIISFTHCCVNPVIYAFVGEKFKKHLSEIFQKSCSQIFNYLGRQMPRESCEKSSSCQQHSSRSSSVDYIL
T2 sequence (G7NYJ2 entry or part of it): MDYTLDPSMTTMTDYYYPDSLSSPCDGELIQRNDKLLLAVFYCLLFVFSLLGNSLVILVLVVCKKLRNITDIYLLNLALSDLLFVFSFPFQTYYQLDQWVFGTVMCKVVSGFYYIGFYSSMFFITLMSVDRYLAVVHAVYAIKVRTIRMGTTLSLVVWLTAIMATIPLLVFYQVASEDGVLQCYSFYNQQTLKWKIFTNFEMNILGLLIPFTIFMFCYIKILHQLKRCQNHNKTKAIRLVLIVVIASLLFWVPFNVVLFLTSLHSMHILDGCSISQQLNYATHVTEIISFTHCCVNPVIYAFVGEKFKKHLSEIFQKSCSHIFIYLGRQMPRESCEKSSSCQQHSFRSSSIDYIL

B1: PR005335 (antibody, human IgG1, kappa, V domains shown)
VH: QVQLVQSGGGLVQPGGSLRLSCTASGFTFSYYWLSWVRQAPGKGLEWVANIKQDGSTTYYVDSVKGRFTISRDNAKNSLYLQMNSLRAEDTAVYYCARNWGFDYWGQGTLVTVSS
VL: not shown
notes: fully human, human IgG1 constant region
Molecule B1 displayed an EC50 with human CCR8 [1] of 0.47 nM.

B2: PR004324 (antibody, human IgG1, kappa, V domains shown)
VH: EVQLVESGGGLVQPKGSLKLSCAASGFTFNTYAMNWVRQAPGKGLEWVARIRSKSNNYATYYADSVKDRFTISRDDSQSMLYLQMNNLKTEDTAMYYCVRGKENGNYYAMDFWGQGTSVTVSA
VL: DIVMTQAAPSVPVTPGESVSISCRSSKSLLHSNAKIYLYWFLQRPGQSPQLLIYRMSNLASGVPDRFSGSGSGTAFTLRISRVEAEDVGVYYCMQHLEYPLTFGAGTKLEIKR
notes: PTM variant of PR004128, IgG1 with DE mutation
Take B2: the EC50 with cynomolgus monkey CCR8 was found to be 2.3 nM; with human CCR8 [2] it was 0.67 nM.

B3: PR004328 (antibody, human IgG1, kappa, V domains shown)
VH: EVQLVESGGGLVQPKGSLKLSCAASGFTFSTYAMNWVRQAPGKGLEWVARIRSKSNNYATYYADSVKDRFTISRDDSQSMLYLQMNNLKTEDTAMYYCVRGKENGNYYAMDFWGQGTSVTVSA
VL: DIVMTQAAPSVPVTPGESVSISCRSSKSLLHSNGKIYLYWFLQRPGQSPQLLIYRMSNLASGVPDRFSGSGSGTAFTLRISRVEAEDVGVYYCMQHLEYPLTFGAGTKLEIKR
notes: as for B2
Consider B3, for which the values for the EC50 with cynomolgus monkey CCR8 and in the test with human CCR8 [2] were 6.05 nM and 1 nM, respectively.

B4: PR004330 (antibody, human IgG1, kappa, V domains shown)
VH: EVQLVESGGGLVKPGGSLRLSCAASGFTFNTYAMNWVRQAPGKGLEWVGRIRSKSNNYATYYADSVKDRFTISRDDSKSTLYLQMNSLKTEDTAVYYCVRGKENGNYYAMDFWGQGTTVTVSS
VL: DIVMTQAAPSVPVTPGESVSISCRSSKSLLHSNGKIYLYWFLQRPGQSPQLLIYRMSNLASGVPDRFSGSGSGTAFTLRISRVEAEDVGVYYCMQHLEYPLTFGAGTKLEIKR
notes: heavy-chain semi-humanized variant of PR004128, IgG1 with DE mutation
Consider B4, for which the EC50 turned out to be 3.96 nM with cynomolgus monkey CCR8 and 0.85 nM with human CCR8 [2].

B5: PR004326 (antibody, human IgG1, kappa, V domains shown)
VH: EVQLVESGGGLVQPKGSLKLSCAASGFTFNTYAMNWVRQAPGKGLEWVARIRSKSNNYATYYADSVKDRFTISRDDSQSMLYLQMNNLKTEDTAMYYCVRGKENANYYAMDFWGQGTSVTVSA
VL: DIVMTQAAPSVPVTPGESVSISCRSSKSLLHSNGKIYLYWFLQRPGQSPQLLIYRMSNLASGVPDRFSGSGSGTAFTLRISRVEAEDVGVYYCMQHLEYPLTFGAGTKLEIKR
notes: as for B2
For the molecule B5, the values for the 50% effective concentration (EC50) with cynomolgus monkey CCR8 and in the test with human CCR8 [2] were 0.75 nM and 0.37 nM, respectively.

B6: PR004337 (antibody, human IgG1, kappa, V domains shown)
VH: EVQLVESGGGLVQPGGSLKLSCAASGFTFNTNAMNWVRQASGKGLEWVGRIRSKSNNYATYYADSVKDRFTISRDDSKSTLYLQMNSLKTEDTAVYYCVRGKENGNYYAMDFWGQGTTVTVSS
VL: DIVMTQAAPSVPVTPGESVSISCRSSKSLLHSNGKIYLYWFLQRPGQSPQLLIYRMSNLASGVPDRFSGSGSGTAFTLRISRVEAEDVGVYYCMQHLEYPLTFGAGTKLEIKR
notes: as for B4
Consider B6, for which the EC50 in the test with cynomolgus monkey CCR8 was found to be 5.47 nM; with human CCR8 [2], 0.76 nM.

B7: PR004327 (antibody, human IgG1, kappa, V domains shown)
VH: EVQLVESGGGLVQPKGSLKLSCAASGFTFQTYAMNWVRQAPGKGLEWVARIRSKSNNYATYYADSVKDRFTISRDDSQSMLYLQMNNLKTEDTAMYYCVRGKENGNYYAMDFWGQGTSVTVSA
VL: DIVMTQAAPSVPVTPGESVSISCRSSKSLLHSNGKIYLYWFLQRPGQSPQLLIYRMSNLASGVPDRFSGSGSGTAFTLRISRVEAEDVGVYYCMQHLEYPLTFGAGTKLEIKR
notes: as for B2
In the case of B7, the EC50 with cynomolgus monkey CCR8 worked out at 13.4 nM; with human CCR8 [2], 1.08 nM.

B8: PR005329 (antibody, human IgG1, kappa)
heavy: not shown
light: DIVMTQAAPSVPVTPGESVSISCRSSKSLLHSNGNTYLYWFLQRPGQSPQLLIYRMSNLASGVPDRFSSSGSGTDFTLRISRVEAEDVGVYYCMQHLEYPFTFGAGTKLEIKRTVAAPSVFIFPPSDEQLKSGTASVVCLLNNFYPREAKVQWKVDNALQSGNSQESVTEQDSKDSTYSLSSTLTLSKADYEKHKVYACEVTHQGLSSPVTKSFNRGEC
notes: called CCR8 chimeric antibody; human IgG1 constant region
Turning to B8, the EC50 with human CCR8 [1] is 0.49 nM.

B9: PR005332 (antibody, human IgG1, kappa)
heavy: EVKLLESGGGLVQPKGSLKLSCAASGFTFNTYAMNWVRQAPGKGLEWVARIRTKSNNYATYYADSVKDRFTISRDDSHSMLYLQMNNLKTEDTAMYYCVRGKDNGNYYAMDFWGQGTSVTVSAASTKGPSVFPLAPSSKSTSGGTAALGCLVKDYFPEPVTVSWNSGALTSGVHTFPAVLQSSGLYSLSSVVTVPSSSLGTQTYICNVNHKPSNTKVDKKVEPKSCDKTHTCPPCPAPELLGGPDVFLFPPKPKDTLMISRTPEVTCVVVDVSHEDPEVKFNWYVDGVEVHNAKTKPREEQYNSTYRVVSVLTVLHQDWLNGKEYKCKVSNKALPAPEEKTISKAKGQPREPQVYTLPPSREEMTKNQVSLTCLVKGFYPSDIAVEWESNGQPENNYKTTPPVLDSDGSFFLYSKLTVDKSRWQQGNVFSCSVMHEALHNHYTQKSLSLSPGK
light: DIVMTQAAPSVPVTPGESVSISCRSSKSLLHSNGNTYLYWFLQRPGQSPQLLIYRMSNLASGVPDRFSSSGSGTDFTLRISRVEAEDVGVYYCMQHLEYPFTFGAGTKLEIKRTVAAPSVFIFPPSDEQLKSGTASVVCLLNNFYPREAKVQWKVDNALQSGNSQESVTEQDSKDSTYSLSSTLTLSKADYEKHKVYACEVTHQGLSSPVTKSFNRGEC
notes: same VH/VL as PR005329, other heavy chain entry
For the molecule B9, the EC50 in the test with human CCR8 [1] was determined as 0.63 nM.

B10: PR004325 (antibody, human IgG1, kappa, V domains shown)
VH: EVQLVESGGGLVQPKGSLKLSCAASGFTFNTYAMNWVRQAPGKGLEWVARIRSKSNNYATYYADSVKDRFTISRDDSQSMLYLQMNNLKTEDTAMYYCVRGKENGNYYAMDFWGQGTSVTVSA
VL: DIVMTQAAPSVPVTPGESVSISCRSSKSLLHSQGKIYLYWFLQRPGQSPQLLIYRMSNLASGVPDRFSGSGSGTAFTLRISRVEAEDVGVYYCMQHLEYPLTFGAGTKLEIKR
notes: as for B2
B10: the values for the EC50 in the test with cynomolgus monkey CCR8 and in the test with human CCR8 [2] were 3.89 nM and 1.31 nM, respectively.

B11: PR004338 (antibody, human IgG1, kappa, V domains shown)
VH: EVQLVESGGGLVQPGGSLKLSCAASGFTFNTYAMNWVRQASGKGLEWVGRIRSKSNNYATYYADSVKDRFTISRDDSKSTLYLQMNSLKTEDTAVYYCVRGKENGNYYAMDYWGQGTTVTVSS
VL: DIVMTQAAPSVPVTPGESVSISCRSSKSLLHSNGKIYLYWFLQRPGQSPQLLIYRMSNLASGVPDRFSGSGSGTAFTLRISRVEAEDVGVYYCMQHLEYPLTFGAGTKLEIKR
notes: as for B4
Take B11: the EC50 in the test with cynomolgus monkey CCR8 amounted to 4.21 nM; with human CCR8 [2], 0.72 nM.

B12: PR004329 (antibody, human IgG1, kappa, V domains shown)
VH: EVQLVESGGGLVQPKGSLKLSCAASGFTFNTYAMNWVRQAPGKGLEWVARIRSKSNNYATYYADSVKDRFTISRDDSQSMLYLQMNNLKTEDTAMYYCVRGKEQGNYYAMDFWGQGTSVTVSA
VL: DIVMTQAAPSVPVTPGESVSISCRSSKSLLHSNGKIYLYWFLQRPGQSPQLLIYRMSNLASGVPDRFSGSGSGTAFTLRISRVEAEDVGVYYCMQHLEYPLTFGAGTKLEIKR
notes: as for B2
As for B12, the EC50 in the test with cynomolgus monkey CCR8 amounted to 0.41 nM; with human CCR8 [2], 0.17 nM.

B13: PR004336 (antibody, human IgG1, kappa, V domains shown)
VH: EVQLVESGGGLVQPGGSLKLSCAASGFTFNTYAMNWVRQASGKGLEWVGRIRSKSNNYATYYADSVKDRFTISRDDSKSTLYLQMNSLKTEDTAVYYCVRGKENGNYYAMDFWGQGTTVTVSS
VL: DIVMTQAAPSVPVTPGESVSISCRSSKSLLHSNGKIYLYWFLQRPGQSPQLLIYRMSNLASGVPDRFSGSGSGTAFTLRISRVEAEDVGVYYCMQHLEYPLTFGAGTKLEIKR
notes: as for B4
B13: the EC50 in the test with cynomolgus monkey CCR8 was 3.33 nM; with human CCR8 [2], 0.79 nM.

B14: PR005125 (antibody, human IgG1, kappa)
heavy: not shown
light: DIVMTQSPLSLSVTLGQPASISCRSSQSLVFSNGNTYLNWFQQRPGQSPRRLIYKVSKRDSGVPDRFSGSGSGTDFTLKISRVEAEDVGVYYCMQGTHWITFGQGTRLEIKRTVAAPSVFIFPPSDEQLKSGTASVVCLLNNFYPREAKVQWKVDNALQSGNSQESVTEQDSKDSTYSLSSTLTLSKADYEKHKVYACEVTHQGLSSPVTKSFNRGEC
notes: as for B1
With B14, in the test with human CCR8 [1], the EC50 amounted to 0.44 nM.

B15: PR005128 (antibody, human IgG1, kappa)
heavy: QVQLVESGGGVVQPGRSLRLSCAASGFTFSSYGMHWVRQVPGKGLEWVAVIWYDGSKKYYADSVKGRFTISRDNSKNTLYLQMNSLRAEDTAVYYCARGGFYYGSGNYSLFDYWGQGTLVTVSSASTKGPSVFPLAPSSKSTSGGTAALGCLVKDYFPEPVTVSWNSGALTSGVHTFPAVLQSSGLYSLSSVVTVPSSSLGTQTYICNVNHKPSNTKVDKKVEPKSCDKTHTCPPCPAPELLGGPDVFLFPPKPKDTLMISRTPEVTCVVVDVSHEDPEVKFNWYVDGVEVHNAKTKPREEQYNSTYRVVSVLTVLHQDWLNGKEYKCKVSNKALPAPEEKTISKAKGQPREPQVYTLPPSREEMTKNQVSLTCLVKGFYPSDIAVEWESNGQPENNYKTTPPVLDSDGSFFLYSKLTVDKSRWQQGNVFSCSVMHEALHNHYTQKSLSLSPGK
light: DIVMTQSPLSLSVTLGQPASISCRSSQSLVFSNGNTYLNWFQQRPGQSPRRLIYKVSKRDSGVPDRFSGSGSGTDFTLKISRVEAEDVGVYYCMQGTHWITFGQGTRLEIKRTVAAPSVFIFPPSDEQLKSGTASVVCLLNNFYPREAKVQWKVDNALQSGNSQESVTEQDSKDSTYSLSSTLTLSKADYEKHKVYACEVTHQGLSSPVTKSFNRGEC
notes: fully human; same VH/VL as PR005125, other heavy chain entry
Regarding B15, in the test with human CCR8 [1], the midpoint of the response, the EC50, lay at 0.37 nM.

B16: PR005330 (antibody, human IgG1, kappa)
heavy: not shown
light: DIVMTQAATSVLVTPGESVSISCRSSKSLLYSNGNTYLYWFLQRPGQSPQLLIYRMSNLASGVPDRFSGSGSGTAFTLRISRVEAEDVGVYYCMQHLEYPFTFGGGTKLELKRTVAAPSVFIFPPSDEQLKSGTASVVCLLNNFYPREAKVQWKVDNALQSGNSQESVTEQDSKDSTYSLSSTLTLSKADYEKHKVYACEVTHQGLSSPVTKSFNRGEC
notes: as for B8
Turning to B16, the EC50 with human CCR8 [1] was found to be 0.47 nM.

B17: PR005333 (antibody, human IgG1, kappa)
heavy: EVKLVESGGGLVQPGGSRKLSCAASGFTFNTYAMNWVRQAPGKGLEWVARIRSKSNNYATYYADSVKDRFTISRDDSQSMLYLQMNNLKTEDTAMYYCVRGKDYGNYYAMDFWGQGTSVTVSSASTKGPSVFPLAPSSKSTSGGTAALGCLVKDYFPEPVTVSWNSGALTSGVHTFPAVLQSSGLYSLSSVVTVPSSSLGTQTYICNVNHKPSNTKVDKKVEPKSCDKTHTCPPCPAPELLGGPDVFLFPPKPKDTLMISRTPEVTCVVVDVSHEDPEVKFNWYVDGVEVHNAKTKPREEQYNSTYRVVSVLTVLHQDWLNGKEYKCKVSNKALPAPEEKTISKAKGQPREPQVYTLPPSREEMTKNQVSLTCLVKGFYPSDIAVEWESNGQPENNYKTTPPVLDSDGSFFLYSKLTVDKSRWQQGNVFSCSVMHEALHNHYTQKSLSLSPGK
light: DIVMTQAATSVLVTPGESVSISCRSSKSLLYSNGNTYLYWFLQRPGQSPQLLIYRMSNLASGVPDRFSGSGSGTAFTLRISRVEAEDVGVYYCMQHLEYPFTFGGGTKLELKRTVAAPSVFIFPPSDEQLKSGTASVVCLLNNFYPREAKVQWKVDNALQSGNSQESVTEQDSKDSTYSLSSTLTLSKADYEKHKVYACEVTHQGLSSPVTKSFNRGEC
notes: same VH/VL as PR005330, other heavy chain entry
In turn, B17 came in with an EC50 with human CCR8 [1] of 0.52 nM.
